Measured values: PMC5658359 (2017)
Where no end group is shown, it is not given here. [ ]: non-standard residue; d: D form. 5‑Cl‑benzothiazol‑2‑yl side chain = not defined here; 6‑Cl‑benzothiazol‑2‑yl side chain = not defined here; Phe(3-CF3) = N[C@@H](Cc1cccc(C(F)(F)F)c1)C(=O)O; Phe(3,5-F2) = N[C@@H](Cc1cc(F)cc(F)c1)C(=O)O; Phe(3-CN) = N#Cc1cccc(C[C@H](N)C(=O)O)c1; Phe(3-Cl) = N[C@@H](Cc1cccc(Cl)c1)C(=O)O; Phe(4-Cl) = N[C@@H](Cc1ccc(Cl)cc1)C(=O)O; Phe(2-Cl) = N[C@@H](Cc1ccccc1Cl)C(=O)O; 2Nal = N[C@@H](Cc1ccc2ccccc2c1)C(=O)O; Phe(2-F) = N[C@@H](Cc1ccccc1F)C(=O)O; hPhe = N[C@@H](CCc1ccccc1)C(=O)O

The binders below were run against human DCN1 (residues 58–259), N-terminal His6 tag (human, UniProt Q96GG9 58-259) (assay: FP).
Sequence of human DCN1 (residues 58–259), N-terminal His6 tag (Q96GG9 58-259): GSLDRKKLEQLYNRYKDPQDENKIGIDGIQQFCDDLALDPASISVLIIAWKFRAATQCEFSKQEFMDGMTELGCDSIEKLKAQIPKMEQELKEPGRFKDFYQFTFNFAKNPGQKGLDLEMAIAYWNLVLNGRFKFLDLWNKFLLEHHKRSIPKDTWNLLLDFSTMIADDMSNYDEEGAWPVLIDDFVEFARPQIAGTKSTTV
Binder MIKLFSL [UBC12 seven-residue peptide (6)] has a Ki of 28 µM. [Phe(3-CF3)]IKL [analog of 11 containing an m-CF3 substituted phenyl] gave a Ki of over 1000 µM. Work on [Phe(2-Cl)]IKL [compound 13 (11 with Cl at the ortho position of the phenyl ring)] yielded a Ki of 143 µM. [6‑Cl‑benzothiazol‑2‑yl side chain]IKL (not fully specified; reading uncertain) [compound 26 (24 with 6-Cl on the benzothiazol-2-yl)] showed a Ki of 0.034 µM. MIK [UBC12 tripeptide (10)] showed a Ki of over 1000 µM. Binder [Phe(4-Cl)]IKL [compound 15 (11 with Cl at the para position of the phenyl ring)] has a Ki of 71 µM. Work on FIKL [compound 11 (tetrapeptide 9 with Met1 replaced by phenylalanine)] yielded a Ki of 41 µM. With MIKLFSLK [UBC12 peptide 5] the Ki was 9.2 µM. Binder MIKLFSLKQ [UBC12 peptide 4] has a Ki of 6.5 µM. [hPhe]IKL [compound 12 (tetrapeptide 9 with Met1 replaced by homophenylalanine)] showed a Ki of 313 µM. Binder [2Nal]IKL [compound 23 (11 with the phenyl replaced by naphthalen-2-yl)] has a Ki of 3.8 µM. MIKLFS [UBC12 peptide 7] was tested, and the Ki was 83 µM. MIKLFSLKQQ [UBC12 peptide 3] was tested, and the Ki was 6 µM. [5‑Cl‑benzothiazol‑2‑yl side chain]IKL (not fully specified; reading uncertain) [compound 25 (24 with 5-Cl on the benzothiazol-2-yl)] was tested, and the Ki was 2.5 µM. [Phe(3-Cl)]IKL [compound 14 (11 with Cl at the meta position of the phenyl ring)] was tested, and the Ki was 45 µM. Work on [Phe(3,5-F2)]IKL [analog of 11 with 3,5-di-F substitution of the phenyl] yielded a Ki of 82 µM. MIKLF [UBC12 peptide 8] was tested, and the Ki was 111 µM. With YIKL [analog of 11 with p-OH substitution of the phenyl] the Ki was 386 µM. MIKLFSLKQQK [UBC12 peptide 2 (peptide 1 without Lys12)] was tested, and the Ki was 2.4 µM. For [Phe(2-F)]IKL [analog of 11 with o-F substitution of the phenyl], the Ki was 125 µM. [Phe(3-CN)]IKL [analog of 11 containing an m-CN substituted phenyl] showed a Ki of over 1000 µM.
